Key:
4H2691-bA = molecular target: T1, 4H2691-bA; test: two-hybrid library CCNG1;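 further: natural log of median RNA to DNA barcode read ratio; higher means stronger binding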
T1 chain: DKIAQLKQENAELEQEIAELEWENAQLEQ

4H3070-bA = molecular target: T2, 4H3070-bA; test: two-hybrid library CCNG1;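 further: natural log of median RNA to DNA barcode read ratio; higher means stronger binding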
T2 chain: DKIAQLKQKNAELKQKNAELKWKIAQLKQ

4H342-bA = molecular target: T3, 4H342-bA; test: two-hybrid library CCNG1;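 further: natural log of median RNA to DNA barcode read ratio; higher means stronger binding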
T3 chain: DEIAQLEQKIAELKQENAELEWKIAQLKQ

4H3632-bA = molecular target: T4, 4H3632-bA; test: two-hybrid library CCNG1;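 further: natural log of median RNA to DNA barcode read ratio; higher means stronger binding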
T4 chain: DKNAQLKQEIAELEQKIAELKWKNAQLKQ

4H496-bA = molecular target: T5, 4H496-bA; test: two-hybrid library CCNG1
T5 chain: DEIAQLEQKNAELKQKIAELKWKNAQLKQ

4H953-bH = molecular target: T6, 4H953-bH; test: two-hybrid library CCNG1
T6 chain: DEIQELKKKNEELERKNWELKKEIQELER

4H1360-AA = molecular target: T7, 4H1360-AA; test: two-hybrid library CCmax; settings: mean of both orientations
T7 chain: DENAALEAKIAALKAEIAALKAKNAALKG

4H1384-AA = molecular target: T8, 4H1384-AA; test: two-hybrid library CCmax; settings: mean of both orientations
T8 chain: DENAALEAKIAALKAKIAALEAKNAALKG

4H1449-AA = molecular target: T9, 4H1449-AA; test: two-hybrid library CCmax; settings: mean of both orientations
T9 chain: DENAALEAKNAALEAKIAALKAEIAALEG

4H1454-AA = molecular target: T10, 4H1454-AA; test: two-hybrid library CCmax; settings: mean of both orientations
T10 chain: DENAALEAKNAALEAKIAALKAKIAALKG

4H1558-AA = molecular target: T11, 4H1558-AA; test: two-hybrid library CCmax; settings: mean of both orientations
T11 chain: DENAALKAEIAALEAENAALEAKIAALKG

4H1593-AA = molecular target: T12, 4H1593-AA; test: two-hybrid library CCmax; settings: mean of both orientations
T12 chain: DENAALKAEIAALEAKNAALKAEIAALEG

4H1878-AA = molecular target: T13, 4H1878-AA; test: two-hybrid library CCmax; settings: mean of both orientations
T13 chain: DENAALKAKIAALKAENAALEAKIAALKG

4H1913-AA = molecular target: T14, 4H1913-AA; test: two-hybrid library CCmax; settings: mean of both orientations
T14 chain: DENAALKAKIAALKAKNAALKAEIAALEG

4H235-AA = molecular target: T15, 4H235-AA; test: two-hybrid library CCmax; settings: mean of both orientations
T15 chain: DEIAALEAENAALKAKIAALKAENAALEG

4H249-AA = molecular target: T16, 4H249-AA; test: two-hybrid library CCmax; settings: mean of both orientations
T16 chain: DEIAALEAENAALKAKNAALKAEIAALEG

4H2580-AA = molecular target: T17, 4H2580-AA; test: two-hybrid library CCmax; settings: mean of both orientations
T17 chain: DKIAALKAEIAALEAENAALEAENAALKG

4H2604-AA = molecular target: T18, 4H2604-AA; test: two-hybrid library CCmax; settings: mean of both orientations
T18 chain: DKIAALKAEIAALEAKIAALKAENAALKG

4H2621-AA = molecular target: T19, 4H2621-AA; test: two-hybrid library CCmax; settings: mean of both orientations
T19 chain: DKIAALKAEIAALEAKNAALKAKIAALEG

4H2699-AA = molecular target: T20, 4H2699-AA; test: two-hybrid library CCmax; settings: mean of both orientations
T20 chain: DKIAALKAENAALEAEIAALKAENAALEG

4H2728-AA = molecular target: T21, 4H2728-AA; test: two-hybrid library CCmax; settings: mean of both orientations
T21 chain: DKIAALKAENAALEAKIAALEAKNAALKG

4H2760-AA = molecular target: T22, 4H2760-AA; test: two-hybrid library CCmax; settings: mean of both orientations
T22 chain: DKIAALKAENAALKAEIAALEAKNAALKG

4H2774-AA = molecular target: T23, 4H2774-AA; test: two-hybrid library CCmax; settings: mean of both orientations
T23 chain: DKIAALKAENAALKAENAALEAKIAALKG

4H2903-AA = molecular target: T24, 4H2903-AA; test: two-hybrid library CCmax; settings: mean of both orientations
T24 chain: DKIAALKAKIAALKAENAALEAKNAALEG

4H2947-AA = molecular target: T25, 4H2947-AA; test: two-hybrid library CCmax; settings: mean of both orientations
T25 chain: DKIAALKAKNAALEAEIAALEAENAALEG

4H2961-AA = molecular target: T26, 4H2961-AA; test: two-hybrid library CCmax; settings: mean of both orientations
T26 chain: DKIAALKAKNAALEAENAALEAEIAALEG

4H3049-AA = molecular target: T27, 4H3049-AA; test: two-hybrid library CCmax; settings: mean of both orientations
T27 chain: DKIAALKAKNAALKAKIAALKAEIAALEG

4H3094-AA = molecular target: T28, 4H3094-AA; test: two-hybrid library CCmax; settings: mean of both orientations
T28 chain: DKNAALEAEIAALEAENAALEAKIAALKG

4H3129-AA = molecular target: T29, 4H3129-AA; test: two-hybrid library CCmax; settings: mean of both orientations
T29 chain: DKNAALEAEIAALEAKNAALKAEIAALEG

4H324-AA = molecular target: T30, 4H324-AA; test: two-hybrid library CCmax; settings: mean of both orientations
T30 chain: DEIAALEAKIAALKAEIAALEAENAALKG

4H341-AA = molecular target: T31, 4H341-AA; test: two-hybrid library CCmax; settings: mean of both orientations
T31 chain: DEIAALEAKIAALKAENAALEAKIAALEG

4H3414-AA = molecular target: T32, 4H3414-AA; test: two-hybrid library CCmax; settings: mean of both orientations
T32 chain: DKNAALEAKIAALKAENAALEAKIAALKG

4H3449-AA = molecular target: T33, 4H3449-AA; test: two-hybrid library CCmax; settings: mean of both orientations
T33 chain: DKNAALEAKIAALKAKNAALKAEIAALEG

4H3595-AA = molecular target: T34, 4H3595-AA; test: two-hybrid library CCmax; settings: mean of both orientations
T34 chain: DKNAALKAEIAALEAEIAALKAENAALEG

4H3619-AA = molecular target: T35, 4H3619-AA; test: two-hybrid library CCmax; settings: mean of both orientations
T35 chain: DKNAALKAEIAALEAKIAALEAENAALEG

4H3629-AA = molecular target: T36, 4H3629-AA; test: two-hybrid library CCmax; settings: mean of both orientations
T36 chain: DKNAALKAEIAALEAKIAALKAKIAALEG

4H3777-AA = molecular target: T37, 4H3777-AA; test: two-hybrid library CCmax; settings: mean of both orientations
T37 chain: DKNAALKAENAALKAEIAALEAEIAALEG

4H3782-AA = molecular target: T38, 4H3782-AA; test: two-hybrid library CCmax; settings: mean of both orientations
T38 chain: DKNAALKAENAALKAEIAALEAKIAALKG

4H380-AA = molecular target: T39, 4H380-AA; test: two-hybrid library CCmax; settings: mean of both orientations
T39 chain: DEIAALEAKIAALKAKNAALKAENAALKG

4H3915-AA = molecular target: T40, 4H3915-AA; test: two-hybrid library CCmax; settings: mean of both orientations
T40 chain: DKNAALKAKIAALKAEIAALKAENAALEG

4H3939-AA = molecular target: T41, 4H3939-AA; test: two-hybrid library CCmax; settings: mean of both orientations
T41 chain: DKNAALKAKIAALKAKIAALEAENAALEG

4H3969-AA = molecular target: T42, 4H3969-AA; test: two-hybrid library CCmax; settings: mean of both orientations
T42 chain: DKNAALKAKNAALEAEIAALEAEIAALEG

4H3974-AA = molecular target: T43, 4H3974-AA; test: two-hybrid library CCmax; settings: mean of both orientations
T43 chain: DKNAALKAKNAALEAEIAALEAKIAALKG

4H432-AA = molecular target: T44, 4H432-AA; test: two-hybrid library CCmax; settings: mean of both orientations
T44 chain: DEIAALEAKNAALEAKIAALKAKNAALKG

4H446-AA = molecular target: T45, 4H446-AA; test: two-hybrid library CCmax; settings: mean of both orientations
T45 chain: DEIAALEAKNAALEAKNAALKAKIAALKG

4H464-AA = molecular target: T46, 4H464-AA; test: two-hybrid library CCmax; settings: mean of both orientations
T46 chain: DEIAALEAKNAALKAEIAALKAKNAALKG

4H483-AA = molecular target: T47, 4H483-AA; test: two-hybrid library CCmax; settings: mean of both orientations
T47 chain: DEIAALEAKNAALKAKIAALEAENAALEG

4H63-AA = molecular target: T48, 4H63-AA; test: two-hybrid library CCmax; settings: mean of both orientations
T48 chain: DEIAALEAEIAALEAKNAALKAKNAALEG

P2-AA-1HGe-A = molecular target: T49, P2-AA-1HGe-A; test: two-hybrid library CCmax
T49 chain: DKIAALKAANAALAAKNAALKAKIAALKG

B1: 4H2691-bA (peptide)
chain: DKIAQLKQENAELEQEIAELEWENAQLEQ
4H2691-bA
  interaction score: -1.17
4H3070-bA
  interaction score: 0.439
4H342-bA
  interaction score: -0.443
4H3632-bA
  interaction score: -0.861
4H496-bA
  interaction score: -3.04
4H953-bH
  interaction score: -0.501

B2: 4H1349-AA (peptide)
chain: DENAALEAKIAALKAEIAALEAKIAALEG
4H1360-AA
  interaction score: 0.392
4H1384-AA
  interaction score: 1.03
4H1449-AA
  interaction score: -0.154
4H1454-AA
  interaction score: -0.224
4H1558-AA
  interaction score: -0.218
4H1593-AA
  interaction score: 0.813
4H1878-AA
  interaction score: -0.906
4H1913-AA
  interaction score: -0.124
4H235-AA
  interaction score: -2.02
4H249-AA
  interaction score: -2.14
4H2580-AA
  interaction score: -0.799
4H2604-AA
  interaction score: 1.42
4H2621-AA
  interaction score: 2.18
4H2699-AA
  interaction score: -1.39
4H2728-AA
  interaction score: -1.04
4H2760-AA
  interaction score: -0.562
4H2774-AA
  interaction score: -2.01
4H2903-AA
  interaction score: -0.278
4H2947-AA
  interaction score: -1.49
4H2961-AA
  interaction score: -2.4
4H3049-AA
  interaction score: -0.0176
4H3094-AA
  interaction score: -0.703
4H3129-AA
  interaction score: 0.123
4H324-AA
  interaction score: 1.84
4H341-AA
  interaction score: -0.142
4H3414-AA
  interaction score: -0.92
4H3449-AA
  interaction score: -0.531
4H3595-AA
  interaction score: 1.05
4H3619-AA
  interaction score: 0.504
4H3629-AA
  interaction score: 2.08
4H3777-AA
  interaction score: -0.808
4H3782-AA
  interaction score: 0.414
4H380-AA
  interaction score: -0.754
4H3915-AA
  interaction score: 0.312
4H3939-AA
  interaction score: 0.491
4H3969-AA
  interaction score: -1.13
4H3974-AA
  interaction score: 0.171
4H432-AA
  interaction score: -1.21
4H446-AA
  interaction score: -1.37
4H464-AA
  interaction score: -0.554
4H483-AA
  interaction score: -1.07
4H63-AA
  interaction score: -0.724
P2-AA-1HGe-A
  interaction score: -1.79
